According to the nanobody polyreactivity screen of Harvey et al. (2022):

Assay: yeast display, Sf9 membrane polyspecificity reagent, FACS + sequencing; frameworks hold sequencing errors
Outline: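 A synthetic nanobody library was expressed on Saccharomyces cerevisiae BJ5465 by galactose induction for 36–48 hours. The library was stained for 1 hour at 4 °C with 10% biotinylated, detergent-solubilized Sf9 membrane reagent and enriched with streptavidin microbeads before FACS. Low and high (top ~1%) gates were set on anti-HA fluorescence for expression and streptavidin fluorescence for reagent binding, and each polyreactivity label reflects the gate of origin.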

Sequence	polyreactivity (PSR sort gate)
QVQLVESGGGIFHAGGSLRLRCAASGSIYRGYAMVWYRQAPGKERELVASIRWRGGRTNYADSVKGRFTISRDNAKNTVYLQMNSLKPEDTAVYYCNADQQTIRSGKNDYWGQGTQVTVSS	low polyreactivity
QVQLVESGGGIFQAGGSLRLSCDASGFTIGAYAMGWYRQAPGKERELVAAITLRTGGSTYYADSLKGRFTISRDNAKNTVYLQMNSLKPEDTAVYYCATYGSYWRKSRAPGYYYGGQGTQVTVSS	high polyreactivity
QVQLVESGGGIVHAGCSLRLSSTASRFIFWWYAMAGYRQAHGKERELVATITASVGSTNYADSVKGRFTISRDNAKNTVYLQMNSLNPEDTAVYYCATDIIGAIRDWDHTRMDYWGQGTQVTVSS	low polyreactivity
QVQLVESGGGIVHAGGSLRLSCAASGFIFDTNAMGWYRQAPGKEREMVAAITNDDSTNYADSVKGRFTISRDNAKTTVYLQMNSLKPEDTSVYYCAAYYIAQVVWPTTFHQQEYDYWGQGSQVTVSS	low polyreactivity
QVQLVESGGGIVKAAGSLRLSCAASGSTFKKYAMGWDRQAPRKERELVASISSGGGTYYADSVKGRFTISRDNAKNTVYVQMNSLKPEDTAVYYCAARYHYAKSPYRYYYWGQGTQVTVSS	high polyreactivity
QVQLVESGGGIVKAGGSLGISCAASGRIFDYYDMLWYRQAPGKERELVAAITQSGGSTNYADSVKGRFTISRDNAKNTVYLQMNSLKPEDTAVYYCAGVGYYTKRRFGYWGQGTQVTVSS	high polyreactivity
QVQLVESGGGIVQAAGSLRLSCAASGFTIYYYAMVWYRQAPGKERELVASITSGGSTYYADSVKGRFTISRDNAKNTVYLQMNSLKPEDTAVYYCAITRFHSKEGVYWGQGTQVTVSS	low polyreactivity
QVQLVESGGGIVQAGGRLRISCAASGFSFRKYAMGWSRQAPGKEREFVASISSTGARTYYADSVKGRFTISRDNAKNTVYLQMTSLKPEDTAVYYCAAAYGRYYYTYDYWGLGTQVTVSS	high polyreactivity
QVQLVESGGGIVQAGGRLRLRCAASGSNFYYNAMGWYRQAPGKERELVAAITWSGGRTYYADSVKGRFTISRDNAKNTVYLQMNSLKPEDTAVYYCNARYRASRYNYWGQGTQVTVSS	high polyreactivity
QVQLVESGGGIVQAGGRLRLSCAASGSILAGYALGWYRQSPGKERELVAAISESGGNTYYADSVKGRFTISRDNAKNTVYLQMNSLKPEDTAVYYCAADLGYGPLRELEYWGQGTQVTVSS	low polyreactivity
QVQLVESGGGIVQAGGRLRLSCAASGSTFFKYARGWYRQAPGKERELVATMSGTGGRTYYADSVKGRFTISRDNAKNTVYLQMNSLKPEDTAVYYCAAGIYRPFFYTLDYWGQGTQVTVSS	low polyreactivity
QVQLVESGGGIVQAGGSFRLSCAASGSIFVVYAMGWYRQAPGKERELVAAITSGGSTYYADSVKGRFTISRDNAKNTVYLQMNSLKPEDTAVYYCATTYRDGVYELTTFDYWGQGTQVTVSS	low polyreactivity
QVQLVESGGGIVQAGGSHRVICAASGRIFRRYTMGWYRQATGKERDLVATITWDGVSTYYADSVKGRFTISRDNAKKTDYLQMNSLKPEDTAGYYCAARRVYLVGGRYDSWGQGTQVTVSS	high polyreactivity
QVQLVESGGGIVQAGGSLRISCAASRRTYFFNDMGWYRQAPGKERELVAAIGWSTVTTYYADSVKGRFTISRDNAKYTVYFQMISLKPEDTAVYYCAADADGWYSPYDYWGQGSQVTVSS	high polyreactivity
QVQLVESGGGIVQAGGSLRLICAASGFTFGEYAMGRYRQAPGKERELVAAISRGTSTYYADSVKGRFTISRDNAKTTVYLQMNSLKPEDTAVYYCAADWGGLWFWYEYWGQGTQVTVSS	low polyreactivity
QVQLVESGGGIVQAGGSLRLICAASGLIFTLYAMGWSRQAPGKERQLVAVISSAGSTNYADSVKGRFTISRDTAKNTVYLQMNSLKPEETAVYYCNAEPTTPYWDYWAYEDDYWGQGTQVTVSS	low polyreactivity
QVQLVESGGGIVQAGGSLRLICAASGRIFPYNVMGWYRQAPGKERELVAAISSGGTTDYADSVKGRFTISRDNAKNTVYLQMNSLKPEDTAVYYCAATYVYWTWGYDYWGQGTQVTVSS	low polyreactivity
QVQLVESGGGIVQAGGSLRLICAASGSIFSSNAMGWYRQAPGKERELVAAISYSGGGTYYADSVKGRFTISRDNEKNTVYLQMNSLKAEDTAVYYCAVGILFGHYDYLGQGTQVTVSS	high polyreactivity
QVQLVESGGGIVQAGGSLRLRCAASGSTFKVYAIGWYRQATGKERELVAAISRGGRTYYADSVKGRFTISRDNAKNTVYLQMNSLKPEDTAVYYCAAGDQYKTRRNGYGYWGQGTQVTLSS	high polyreactivity
QVQLVESGGGIVQAGGSLRLSCAAAGFTFWQYAMGWYRQAPGKERELVAAITWDGGSTYYADSVKGRFTISRDYAKNTVYLQMNSLKPEDTAVYYCAKLFGGTYYEYDYWGQGTQVTVSS	low polyreactivity
QVQLVESGGGIVQAGGSLRLSCAASGFIFAGNAMGWSSQAPGKERELVAAITRRGGSTHYADSVKGRFTISRDKAKYTVYLQMNSLKPEDTAVYYCNAAVQPPWSDYWGQGTQVTVSS	low polyreactivity
QVQLVESGGGIVQAGGSLRLSCAASGFIFRYYAMGWYRHAPGKESELVATITRSGGSTYYADSVKGRFTISRDNAKNTVYLQMNSLKPEDTAVYYCAADIYWYRGYGYWGQGTQVTVSS	high polyreactivity

Sequence	polyreactivity (PSR sort gate)
QVQLVESGGGIVQAGGSLRLSCAASGFIFVLYAMGWYRQAPGKERELVASISSTGSTYYADSVKGRFTISRENAKNTVYLQMNSLIPEDTAVYYCNLFVFDPEDFWGEGTQVTVSS	low polyreactivity
QVQLVESGGGIVQAGGSLRLSCAASGFIFWKNAMGWYSQAPGKERELVAAISTRGGSTYYADSVKGRFTISRDNAKNTVYLQMNSLKPEDTAVYYCNKEWYPYKHNYWGQGTQVTVSS	low polyreactivity
QVQLVESGGGIVQAGGSLRLSCAASGFKFKFYVMGWYRQAPGKERELVAAISRNSVSTYYADSVKGRFTISRDNAKNTVYLQMNSLKPEDTAVYYCAAKGPRQYNHWGQGTQVTVSS	high polyreactivity
QVQLVESGGGIVQAGGSLRLSCAASGFLYFFYAMGWYRQAPRKQRELVAANSDGVSTYYADSVKGRFTISRDNAKNTVYLQMNSLKPEDTAVFYCAVSRGDDPEFDYWGQCTQVTVSS	low polyreactivity
QVQLVESGGGIVQAGGSLRLSCAASGFTFIRYAMLWYRQAPGIERELVAAITSSGGSTYSADSVKGRFTISRDNAKNTVYLQKNSLKPEDTAVYYCATVYSGPVRAIGYDYWGQGTQVTVSS	high polyreactivity
QVQLVESGGGIVQAGGSLRLSCAASGFTFKKYAMGWYRQAPGKERELVAAISRSGGRTYYADSVKGRFTISRDNAKNTVFLQMNSLKPEDTAVYYCNADYYSAAYYYWGQGTQVTVSS	high polyreactivity
QVQLVESGGGIVQAGGSLRLSCAASGFTFQFYAMGWYRQAPGKEREFVAAISGSGGSTYYADSVKGRFTISRDNAKNTVYLQMNSLKPEDTAVYYCAAEVPGKPYRRSRYSFRHDYWGQGTQVTVSS	low polyreactivity
QVQLVESGGGIVQAGGSLRLSCAASGFTFYYKAMGWYRQAPGKERELVAAISRGGRTNYADSVKGRFTISRDNAKNTVYLEMNSLTPADTAVYYCAADRYNGVYAVYYYGYDYWGQGTKVTVSS	high polyreactivity
QVQLVESGGGIVQAGGSLRLSCAASGFTYVYYVMGWYRQAPGKDRELVAAINAGGGSTYYADSVKGRFTNSRDIAKNTVYLQMNSLKPEDTADYYCNARVRVRLGRNWSSYYYWGQGTQVTVSS	high polyreactivity
QVQLVESGGGIVQAGGSLRLSCAASGGIFWRYAMGWYRQAPGKERELVAAISSRGGSTYYADSVKGRFTISRDNAKNTVYLQMNSLKPEDTAVYYCAADRRYAESGYYWGHGTQVTVSS	high polyreactivity
QVQLVESGGGIVQAGGSLRLSCAASGGTCWFYDMGWYRQAPGKERELVAAINSDGSTYYADSVKGRFTISRDNAMNTVYLQMNSLQPEDTAVYYCAADISLHWYYYRRYNYWGQGTQGTVSS	low polyreactivity
QVQLVESGGGIVQAGGSLRLSCAASGGTFIRYAMGWYRQAPGKEREFVAAISASGGSTYYADSVKGRFTISRDNAKNTVYLQMNSLKPEDTAVYYCAARRTNLPVKFYYWGQGTQVTVSS	high polyreactivity
QVQLVESGGGIVQAGGSLRLSCAASGGTFTRYAMGWYRQAPGKEREFVAAISGSGGSTYYADSVKGRFTISRDNAKNTVYLQMNSLKPVDTAVYYCNKVPVYPPSYYWGQGTQVTVSS	low polyreactivity
QVQLVESGGGIVQAGGSLRLSCAASGIIIQYYAMGWYRQAPGKERELVAAISWSGGSTYYADSVKGRFTISRDNAKNTVYLQMNSLKPEDTAVYYCAARSRSYWPYEGDYWGQGTQVTVSS	low polyreactivity
QVQLVESGGGIVQAGGSLRLSCAASGISFLRYAMGWYRQAPGKEREFVAAINSIVGRTYYADSVKGRFTISRDNAKNTVYLQMNSLIPDDTAVYYCAADSNVRYGMDYWGQGTQVTVSS	low polyreactivity
QVQLVESGGGIVQAGGSLRLSCAASGITFPLYVMGWYRQAPGKERELVAAISASGGSTYADSVKGRFTISRDNAKNTVYLQMNSLKPEDTAVYYCNADVYVGYDYDYWGQGTQVTVSS	low polyreactivity
QVQLVESGGGIVQAGGSLRLSCAASGITIYKYAMGWYRQAPGKERELLAAITRGGSTYYADSVKGRFTISRDNAKNTVYLQMNSLNPEDTAVYYCNKVYHWQTPGFGYGYWGQGTQVTVSS	high polyreactivity
QVQLVESGGGIVQAGGSLRLSCAASGLTFWPYAMGWYRQARGKERELVAAISYNSGRTYYADSVKGRFTISRDNAKNTVYLQMNSLKPEDTEVYYCAVEWSLSRYYYWGQGTQVTVSS	high polyreactivity
QVQLVESGGGIVQAGGSLRLSCAASGLTFWYYAMGGYRQAPGKVRELVARITRSGVGTYYADSVKGRFTISRDNAKNTVYLQMNSLKPEDTAVYYCAARYWVSGFRAGYYWGQGTQVTVSS	high polyreactivity
QVQLVESGGGIVQAGGSLRLSCAASGLTFYVYAMGWYREAPGKEREFVAAITWSGGSTYYADSVKGRFTISRDNAKNTVYLQMNSLKPEDTAVYYCAAETLWSELYYWGQGTQVTVSS	high polyreactivity
QVQLVESGGGIVQAGGSLRLSCAASGLTYGKYAMGWNRPAPGKERELVAANSRRGGSTYYADSVKGRFTISRDKAKNNDYLQMNRLKPEDSAVYYFNTDTKHTGLDYWGQGTQVSVSS	high polyreactivity
